The text below walks through data of patent US20040102382A1, “Targeting peptides” (priority 2002, published 2004).

One test has as its system P815MUC1 cells. In words: Competition of phage binding by synthetic peptides. Further details: species or system mouse. The conditions noted are these: for inhibition of WPY phage binding: increasing amounts of peptide (WPY 0.1, 10 and 500 μM). The method, then: Synthetic peptides corresponding to the WPY and LPQ sequences of the previously selected phages (second and fourth sequences of Table 3) were synthetized (Neosystem, strasbourg, France). Increasing amounts of WPY peptide (0.1, 10 and 500 μM) and LPQ peptide (0.1, 10 and 1000 μM) or control peptides GHL and SGR (a non-selected phage from the PhD-C7C library) were diluted in a total volume of 1 ml of PBS-BSA1 % with 5.10^6 P815MUC1 cells and incubated for 1 hour at 4° C. under slight agitation. 1.10^10 WPY or LPQ phages in 200 μl of PBS-1% BSA were added and incubated with the cells and the peptide for two hours at 4° C. under slight agitation. Cells were then washed and bound phages eluted and titered following the same protocol as for the selections.

The subject of another test is WiDr cells. In words: Phage binding specificity test (output/input ratio). Also noted: species or system human. The conditions noted are these: fifth pool, PhD-C7C library.
In test [1] the target is coxsackievirus-adenovirus receptor (CAR) on cells (UniProt P78310). The experiment in a line: cell-based or functional assay.
Sequence of UniProt P78310 (P78310 20-365 limits assumed): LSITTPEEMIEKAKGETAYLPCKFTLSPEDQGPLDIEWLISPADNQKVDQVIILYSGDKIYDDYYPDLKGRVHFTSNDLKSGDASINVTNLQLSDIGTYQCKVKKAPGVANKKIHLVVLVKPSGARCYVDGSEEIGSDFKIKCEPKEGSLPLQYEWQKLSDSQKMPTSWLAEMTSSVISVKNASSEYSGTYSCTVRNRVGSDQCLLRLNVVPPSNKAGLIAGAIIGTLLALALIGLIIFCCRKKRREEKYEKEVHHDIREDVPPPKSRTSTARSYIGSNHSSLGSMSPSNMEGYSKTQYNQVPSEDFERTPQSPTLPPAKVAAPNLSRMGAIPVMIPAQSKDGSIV
Test [2] addresses MUC1 as expressed on P815MUC1 cells (P815 mouse mastocytoma cells transfected with MUC1 and Neomycin expression cassettes) (UniProt P15941). In words: phage titration on P815MUC1 cells (1.5e11 phages, 1e7 cells; FIG. 4); the same is said of MUC1-negative P815pAG60 cells.
Test [3] shares this target. In words: phage titration on MUC1-transfected against control-transfected P815 cells (FIG. 4).
Setting [4] is: increasing amounts of peptide (LPQ 0.1, 10 and 1000 μM), 1.10^10 phages, 4° C.

No end group written: not given here.

LPQRAFWVPPIV: the “inhibition of LPQ phage binding” value in the test with P815MUC1 cells (setting [4]) was “inhibit in a dose-dependant manner”. On to CLPSTRQTC [CLPSTRWTC], for which, in the test with WiDr cells, the “binding to WiDr cells compared to the subtractor 293 cells” value is reported as “specific binding”. Take CWPYPSHFC: the “inhibition of LPQ phage binding” value with P815MUC1 cells (500 μM concentration of non-corresponding peptide) is given as “did not significatively inhibit”. Further, the “inhibition of WPY phage binding” value in the test with P815MUC1 cells (1.10^10 phages, 4° C.) was “inhibit in a dose-dependant manner”.

Take “GHLIPLRQPSHQ [GHL used as control peptide and non-selected PhD12 control phage, reference compound]”: the “inhibition of LPQ phage binding” value in the test with P815MUC1 cells (setting [4]) is recorded as “did not significatively inhibit”. Also, in the test with P815MUC1 cells (1.10^10 phages, 4° C.), the “inhibition of WPY phage binding” value is “did not significatively inhibit”. “Adenovirus type 5 wild-type fiber protein, as carried by the Ad-fbwt virus (from UniProt P11818 1-581)” returned an inhibition of infection of 293 and HeLa cells (β-galactosidase activity, % of control) by soluble knob at 10 µg/ml in test [1] of over 90%. In test [2], WPTSPWSSRDWS (not fully specified (C-terminus)) showed a fold higher affinity than the control phages (M13, GHL) of over 100 fold. Besides, the fold binding to P815MUC1 cells over P815pAG60 cells in test [3] is over 3 times. The molecule LPQRAFWVPPIV (not fully specified (C-terminus)) [LPQ phage (M13 phage of the PhD-12 library displaying …)] gave a fold higher affinity than the control phages (M13, GHL) in test [2] of over 100 fold. This molecule also yielded a fold binding to P815MUC1 cells over P815pAG60 cells in test [3] of over 3 times. In turn, MPLPQPSHLPLL (not fully specified (C-terminus)) [MPL phage (M13 phage of the PhD-12 library displaying …)] yielded a fold higher affinity than the control phages (M13, GHL) in test [2] of over 100 fold. Moreover, the fold binding to P815MUC1 cells over P815pAG60 cells in test [3] is over 3 times. The corresponding values for WPVRPWMPGPVV (not fully specified (C-terminus)) [WPV phage (M13 phage of the PhD-12 library displaying …)] are over 100 fold and over 3 times. WPTSPWLEREPA (not fully specified (C-terminus)) came in with a fold higher affinity than the control phages (M13, GHL) in test [2] of over 100 fold. In test [3], this molecule came in with a fold binding to P815MUC1 cells over P815pAG60 cells of over 3 times.
